Binding data for 1 sequence are collected here from article PMC10965056.

In this data set the test system is T1, PsdR-His (Pseudomonas aeruginosa PAO1?), ORF:604e189e.
T1 sequence: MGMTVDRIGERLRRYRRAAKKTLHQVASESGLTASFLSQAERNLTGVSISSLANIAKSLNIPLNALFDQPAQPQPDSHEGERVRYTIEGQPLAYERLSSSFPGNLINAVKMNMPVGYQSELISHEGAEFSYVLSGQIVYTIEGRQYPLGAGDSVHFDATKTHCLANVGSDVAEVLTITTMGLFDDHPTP
Kind of data set: EMSA. The settings on record: 10 mM Tris-HCl pH 7.5, 50 mM KCl, 1 mM DTT, 1% glycerin, 10 mM MgCl2, 1 ug/ul poly(dI-dC), 25 C, 30 min; 6.5% polyacrylamide gel.

On to “CGGGTATCGTACTAGGTGCATCAAACGCTGCGGTCTATTGTTAAGTGGGACTGAAATGTGCCTTTCCGGCACAACGCCAACTCTATAGA (double strand) [PlasR-WT]”, for which the binding result was “binds”.
